B1: KGF: keratinocyte growth factor, growth factor reportedly involved in lacrimal gland differentiation (protein, UniProt P21781 32-194, looked up)
Fibroblast growth factor 7: CNDMTPEQMATNVNCSSPERHTRSYDYMEGGDIRVRRLFCRTQWYLRIDKRGKVKGTQEMKNNYNIMEIRTVAVGIVAIKGVESEFYLAMNKEGKLYAKKECNEDCNFKELILENHYNTYASAKWTHNGGEMFVALNQKGIPVRGKKTKKEQKTAHFLPMAIT
B2: TGF-β3: TGF-β subtype added to the medium to promote cell maturation (protein, UniProt P10600 301-412, looked up)
Transforming growth factor …: ALDTNYCFRNLEENCCVRPLYIDFRQDLGWKWVHEPKGYYANFCSGPCPYLRSADTTHSTVLGLYNTLNPEASASPCCVPQDLEPLTILYYVGRTPKVEQLSNMVVKSCKCS
modifications: Transforming growth factor beta-3
notes: TGF-β subtype added to the medium to promote cell maturation
B3: BMP7: growth factor reportedly involved in lacrimal gland differentiation (protein, UniProt P18075 293-431, looked up)
Bone morphogenetic protein 7: STGSKQRSQNRSKTPKNQEALRMANVAENSSSDQRQACKKHELYVSFRDLGWQDWIIAPEGYAAYYCEGECAFPLNSYMNATNHAIVQTLVHFINPETVPKPCCAPTQLNAISVLYFDDSSNVILKKYRNMVVRACGCH
B4: FGF10: growth factor reportedly involved in lacrimal gland differentiation (protein, UniProt O15520 38-208, looked up)
Fibroblast growth factor 10: QALGQDMVSPEATNSSSSSFSSPSSAGRHVRSYNHLQGDVRWRKLFSFTKYFLKIEKNGKVSGTKKENCPYSILEITSVEIGVVAVKAINSNYYLAMNKKGKLYGSKEFNNDCKLKERIEENGYNTYASFNWQHNGRQMYVALNGKGAPRRGQKTRRKNTSAHFLPMVVHS

System: CD200−, SSEA4+, and CD104+ ocular surface stem cells
Assay: Three-dimensional culture for induction of lacrimal gland organoids from iPS cell-derived ocular surface stem cells
Type: cell-based, Human
Details: for promoting lacrimal gland differentiation: 3D culture in Matrigel, 20 ng/mL KGF, 100 ng/mL FGF10, 100 ng/mL BMP7 or 10 μM Y-27632, each plus 10 ng/mL EGF, FIG. 5A
Experimental: The obtained ocular surface stem cells were seeded on PrimeSurface (registered trademark) 96U plates (Sumitomo Bakelite Co., Ltd.) at 50,000 cells/spheroid in DMEM/F-12 with B27 supplement containing 10 μM Y-27632 and 20 ng/mL KGF and cultured for 1 day to form spheroids (diameter: about 560 μm). The spheroids were embedded in Matrigel GFR (Corning) and cultured in DMEM/F-12 with B27 supplement containing 10 μM Y-27632, 10 ng/mL EGF, and 100 ng/mL TGF-β3 for 2 weeks.
Three-dimensional culture was performed as described in Example 2 in the presence of 10 ng/mL EGF, 10 ng/mL EGF plus 10 μM Y-27632, or 10 ng/mL EGF plus another growth factor reportedly involved in lacrimal gland differentiation, namely, 20 ng/mL KGF, 100 ng/mL FGF10, or 100 ng/mL BMP7.
Similarly, three-dimensional culture was performed in DMEM/F-12 with B27 supplement, 10 ng/mL EGF, and 10 μM Y-27632 containing 100 ng/mL TGF-β1, β2, or β3.
Three-dimensional culture was performed as described in Example 2 in a medium with 10 ng/mL EGF and 10 μM Y-27632 containing 4, 20, or 100 ng/mL TGF-β3.
RNA was collected from each sample using QIAzol Lysis Reagent and subjected to gene expression analysis as described in Example 3.

Molecule | promoting lacrimal gland differentiation | also measured
C[C@@H](N)[C@H]1CC[C@H](C(=O)Nc2ccncc2)CC1 [Y-27632, N-(4-pyridinyl)-4β-[(R)-1-aminoethyl]cyclohexane-1α-carboamide, reference compound] | remarkably promoted lacrimal gland differentiation | 
TGF-β |  | maturation of the lacrimal gland structure (100 ng/mL TGF-β1, β2 or β3 in medium with 10 ng/mL EGF and 10 μM Y-27632, FIG. 5B): helped further maturation of the lacrimal gland structure
B1 | less effective | 
B2 |  | maturation (morphology and gene expression) (4 ng/mL TGF-β3 in medium with 10 ng/mL EGF and 10 μM Y-27632, FIGS. 6A, 6B): maturation was promoted to some extent; extent of maturation, concentration dependence (4, 20 or 100 ng/mL TGF-β3 in medium with 10 ng/mL EGF and 10 μM Y-27632): increased in a TGF-β3 concentration dependent manner
B3 | less effective | 
B4 | less effective | 

From patent publication US12291727B2, “Method for producing stem cell-derived lacrimal gland tissue” (Osaka University, priority 2018, dated 2025)
